Target: MSC membrane glycoproteins (plasminogen membrane receptors) (human (endogenous in MSCs))

- Michaelis-Menten constant of plasmin formation on scuPA-treated MSCs, plasminogen 0-2 μM, chromogenic substrate CBS0065: 0.5 µM
Substance: Glu-plasminogen (natural protein)
